These results are taken from US20170306001A1.

In assay [1] the target is DL06-HA, full length HA of A/duck/Laos/3295/2006(H5N1) (clade 2.3.4) (influenza A virus A/duck/Laos/3295/2006(H5N1)). The assay can be described thus: cell-based or functional assay.
The target of assay [2] is VN04-HA, full length HA of A/Vietnam/1203/2004(H5N1) (clade 1) (influenza A virus A/Vietnam/1203/2004(H5N1)). The assay can be described thus: cell-based or functional assay.
Assay [3] has as its target Indo05-HA, full length HA of A/Indonesia/5/2005(H5N1) (clade 2.1) (influenza A virus A/Indonesia/5/2005(H5N1)). The assay can be described thus: cell-based or functional assay.
For assay [4], the target named is Hatay04-HA, full length HA of A/chicken/Hatay/2004(H5N1) (clade 1) (influenza A virus A/chicken/Hatay/2004(H5N1)).
Assay [5] concerns the target DL06-HA, full length HA of A/duck/Laos/3295/2006(H5N1) (clade 2.3.4) (influenza A virus A/duck/Laos/3295/2006(H5N1)).
Assay [6] addresses VN04-HA, full length HA of A/Vietnam/1203/2004(H5N1) (clade 1) (influenza A virus A/Vietnam/1203/2004(H5N1)).

B1: xi-IgG1-9F4 (antibody, V domains shown)
V domain 1: QQSEAELARPGASVKMSCKASGFTLTTFTIHWVKQRPGQGLEWIGYINPRSGYTDYNQKFKDNTTLTVDKSSSTAYMQLSSLTSEDSAVFYCARSYYDYDVFDYWGQGTTLTV
V domain 2: DVQMTQSPSSLSASLGGKVTITCTARQDINKYIAWYQHKPGKGPRLLIHYTSTLQPGIPSRFSGSGSGTDYSFTISNLEPEDIATYYCLQYDNLVTFGGGTK
In the case of B1, the IC50, entry of HA-pseudotyped lentiviral particles into MDCK cells (luciferase) in assay [1], in assay [2] and in assay [3] was 10 ng/mL each time. In addition, the reduction of HApp entry at the highest concentration tested in assay [1] and in assay [2] was 90% each time.

B2: xi-IgA1-9F4 (antibody, V domains shown)
VH: QVQLQQSEAELARPGASVKMSCKASGFTLTTFTIHWVKQRPGQGLEWIGYINPRSGYTDYNQKFKDNTTLTVDKSSSTAYMQLSSLTSEDSAVFYCARSYYDYDVFDYWGQGTTLTVSS
VL: DVQMTQSPSSLSASLGGKVTITCTARQDINKYIAWYQHKPGKGPRLLIHYTSTLQPGIPSRFSGSGSGTDYSFTISNLEPEDIATYYCLQYDNLVTFGGGTKLELKR
As for B2, in assay [2], the IC50, entry of HA-pseudotyped lentiviral particles into MDCK cells (luciferase) worked out at 100 ng/mL; the fold change of IC50 in the HApp neutralization assay against mouse-9F4 was 10 fold; the inhibition of VN04-HApp entry at 1000 ng/ml was 75%. The molecule further gave an endpoint titre in assay [4] of 1250 ng/mL. The molecule also yielded an endpoint titre in assay [5] of 1250 ng/mL. In addition, the endpoint titre in assay [6] stood at 1250 ng/mL.
